{"source": "the DeepSol protein solubility set", "data": [{"assay": "soluble on expression in E. coli; label from the status in PepcDB or PDB records", "values": [{"sequence": "SLEEPPKAVELEGLAACEGEYSQKYSTMSPLGSGAFGFVWTAVDKEKNKEVVVKFIKKEKVLEDCWIEDPKLGKVTLEIAILSRVEHANIIKVLDIFENQGFFQLVMEKHGSGLDLFAFIDRHPRLDEPLASYIFRQLVSAVGYLRLKDIIHRDIKDENIVIAEDFTIKLIDFGSAAYLERGKLFYTFCGTIEYCAPEVLMGNPYRGPELEMWSLGVTLYTLVFEENPFCELEETVEAAIHPPYLVSKELMSLVSGLLQPVPERRTTLEKLVTDPWVTQPVNLADYTWEEVCRVNKPESGVLSAASLEMGNRSLSDVAQAQELCGG", "soluble on expression in E. coli": "not soluble"}, {"sequence": "SLEQPGFKLRAVTIHFEASADVDSIEDAVFKAKEAIDRLTAEKGVEVWSLRAVLTPGESVADSLGRVAELEPLVEEEGVFINLGLHNASADDWEAVSGIVESGFFLSFALENGTWEEARSYSKLLHRLADKSPDLAVHIGFNPLGTHILTPYFPLATSPGEQRTVTVALLYPRYLLESFRKGGLQAVIDSMVDAAQLSGEYGKAVAKDVEGSFAGVDLSISPWMEESSLALVEEVGGVRLPEPGFAYGLRLVNEAIAAAASKTGYAVGFNEVQLPVAEDSKLKVRVAELETSARDLLRLSGVCLAGLDMAVIPASLDGVAGLLLEARAYSRAKGSIVGVRLIPLDGVEPGDEVFLKRFGEVPVIPI", "soluble on expression in E. coli": "soluble"}, {"sequence": "SLERSVNGKIQKADIFSVPVSFNANEVTHVDTPQEALAASLNKFGEVNLEYMENLSETGRQELLTQLENRIFYNPMMKNYEIKDRFIAGNVVAKVEWIENYLKDYPDDDASKKSLEALQKAIPEPISFELLDFNLGERWIPVSVYEEFAGYLFEAKAHIHYTESIDEFSVSFEETNANITDRYYVKGEKRGYYGNDLLKHALHNTVPDITKTVQDEEGNDIKVRDAEAIQLADAKINEIRSAFTGWLNEQLPEFKQHLADMYNRKFNCYVRPDYDGSLQSFPFLDLKGLGIPSLYDSQ", "soluble on expression in E. coli": "not soluble"}, {"sequence": "SLGGLKLGDLCRLKGQETNTLQGLGLVVGLQGTGDGDAAPKGRALARMMQLMGGPMAVDAAGRLNIEDVGDAKNVAMVFVSATIPTVGAQQGDVLDVTINAISAKSLDGGYLMLTPMLGPRADNPTVYGMAEGRISVSADSPPTSATIQGGLKMETSVRASYVHDNRITLVIDRDFADFSTAHMIEEEVNSLTSFTIGDRNVSRLASPNHQGTGQDGNIALARAIDQLHVEVVIPPTYRDNPIKFIAFLLDIVIPLSNRGKRVVINEADGVVVIGEDVEIAPVLVTHRNLRIEAGGGGRFVEVGPDGTPAAAKLKSLADALGALDVPTEDLIAIIKTLKAKGDLYGEVIFR", "soluble on expression in E. coli": "not soluble"}, {"sequence": "SLGSQGSGLEQSSFQWSPSGRRTGSLYCRVGIGFHLQIYPDGKVNGSHEANMLSVLEIFAVSQGIVGIRGVFSNKFLAMSKKGKLHASAKFTDDCKFRERFQENSYNTYASAIHRTEKTGREWYVALNKRGKAKRGCSPRVKPQHISTHFLPRFKQSEQPELSFTVTVPEKEG", "soluble on expression in E. coli": "soluble"}, {"sequence": "SLLPDIPEPLKNGTGAIDNNGVIYVGLGTAGTSWYKIDLKKQHKDWERIKSFPGGAREQSVSVFLNDELYVFGGVGKKNSESPLQVYSDVYKYSPVKNTWQKVDTISPVGLTGHTGVKLNETMVLITGGVNEHIFDKYFIDIAAAAADESEKNKVIYNYFNKPAKDYFFNKIVFIYNAKENTWKNAGELPGAGTAGSSSVMGNNFLMLINGELKPGLRTDVIYRAMWDNDKLTWLKNSQLPPSPGEQQQEGLAGAFSGYSHGVLLVGGGANFPGAKQNYTNGKFYSHEGINKKWRDEVYGLINGHWQYMGKMKQPLGYGVSVSYGDEVFLIGGENAKGKPVSSVTSFTMRDGNLLIK", "soluble on expression in E. coli": "not soluble"}, {"sequence": "SLNEGQEMEEQFALLLETLKNQQMNEFRELFLALHIYEQGQFYQSLDEKDRQHLYNYLSPKELADMFDVIEEDNENMKDYLAEMRPSYAADMLAEMYTDNAVDLLNMLDKSQKAKYLSLLSSEEAGEIKELLHYEDETAGAIMTTEFVSIVANQTVRSAMYVLKNQADMAETIYYVYVVDQENHLVGVISLRDLIVNDDDTLIADILNERVISVHVGDDQEDVAQTIRDYDFLAVPVTDYDDHLLGIVTVDDIIDVIDDEAASDYSGLAGVDVEEVSENPLKAASK", "soluble on expression in E. coli": "soluble"}, {"sequence": "SLNVNFFVTCIGDALKSRMARDSVLLLEKLGCRVNFPEKQGCCGQPAINSGYIKEAIPGMKNLIAALEDNDDPIISPAGSCTYAVKSYPTYLADEPEWASRAEKVAARMQDLTSFIVNTLGVVDVGASLQGRAVYHPSCSLARKLGVKDEPLTLLKNVRGLELLTFAEQDTCCGFGGTFSVKMAEISGEMVKEKVAHLMEVRPEYLIGADVSCLLNISGRLQREGQKVKVMHIAEVLMSR", "soluble on expression in E. coli": "soluble"}]}]}
